In patent US20250170209A1 (published 2025):
Each block holds one binder with its values, some of them ahead of it.

Tests used:
complement component C3 [1] = molecular target: T1, complement component C3 (human, UniProt P01024 23-1663); assay: cell-based or functional assay
complement component C3 [2] = molecular target: T1, complement component C3; assay: cell-based or functional assay; remark: listed apart in the source

IC50; classical complement inhibition assay (C3b deposition ELISA, human plasma) (complement component C3 [1]): 1290 nM | activity relative to CA28 on a molar basis; classical complement inhibition assay (complement component C3 [2]): ~30 % of the activity of CA28
B1: CA28-AEEAc-Lys-(PEG40k) (peptide)
peptide: ICVXQDWGAHRCTK
modifications: not fully specified; N-terminal acetyl; 1-methyl-tryptophan at position 4; disulfide Cys2-Cys12; AEEAc (8-amino-3,6-dioxaoctanoyl) between Thr13 and Lys; linear monofunctional 40 kD methoxy-PEG (SUNBRIGHT ME-400GS) on the Lys side chain; C-terminal amide

IC50 as a function of CA28 concentration (per peptide moiety); classical complement inhibition assay (complement component C3 [1]): 1930 nM | IC50 on a molar basis (calculated for 7.5 CA28 moieties per molecule); classical complement inhibition assay (complement component C3 [2]): ~260 nM
B2: (CA28-AEEAc)8-PEG40k (peptide)
peptide: ICVXQDWGAHRCTK
modifications: not fully specified; N-terminal acetyl; 1-methyl-tryptophan at position 4; disulfide Cys2-Cys12; AEEAc between Thr13 and Lys; Lys side chain coupled to one arm of an eight-arm 40 kD PEG (SUNBRIGHT HGEO-400GS); C-terminal amide

IC50; classical complement inhibition assay (C3b deposition ELISA, human plasma) (complement component C3 [1]): 1260 nM | activity relative to CA28 on a molar basis; classical complement inhibition assay (complement component C3 [2]): ~30 % of the activity of CA28
B3: CA28-AEEAc-Lys-(PEG30k) (peptide)
peptide: ICVXQDWGAHRCTK
modifications: not fully specified; N-terminal acetyl; 1-methyl-tryptophan at position 4; disulfide Cys2-Cys12; AEEAc (8-amino-3,6-dioxaoctanoyl) between Thr13 and Lys; linear monofunctional 30 kD PEG (SUNBRIGHT ME-300GS) on the Lys side chain; C-terminal amide
